Experimental findings from patent US20200016266A1 are described below.

A word on the EC50 (read off the curve): it is the concentration that produces a half-maximal response.

In this assay the target is recombinant extracellular domain of human VEGFR2 (rhVEGFR2), expressed in human cells (Sino Biological Inc.) (human) (UniProt P35968). Put plainly: FRET fluorescence spectroscopy, 0.5 µM 488-VEGFR2 titrated with 594-Gal1, emission at 518 nm.
Sequence of recombinant extracellular domain of human VEGFR2 (rhVEGFR2), expressed in human cells (Sino Biological Inc.) (human) (P35968 20-764 limits assumed): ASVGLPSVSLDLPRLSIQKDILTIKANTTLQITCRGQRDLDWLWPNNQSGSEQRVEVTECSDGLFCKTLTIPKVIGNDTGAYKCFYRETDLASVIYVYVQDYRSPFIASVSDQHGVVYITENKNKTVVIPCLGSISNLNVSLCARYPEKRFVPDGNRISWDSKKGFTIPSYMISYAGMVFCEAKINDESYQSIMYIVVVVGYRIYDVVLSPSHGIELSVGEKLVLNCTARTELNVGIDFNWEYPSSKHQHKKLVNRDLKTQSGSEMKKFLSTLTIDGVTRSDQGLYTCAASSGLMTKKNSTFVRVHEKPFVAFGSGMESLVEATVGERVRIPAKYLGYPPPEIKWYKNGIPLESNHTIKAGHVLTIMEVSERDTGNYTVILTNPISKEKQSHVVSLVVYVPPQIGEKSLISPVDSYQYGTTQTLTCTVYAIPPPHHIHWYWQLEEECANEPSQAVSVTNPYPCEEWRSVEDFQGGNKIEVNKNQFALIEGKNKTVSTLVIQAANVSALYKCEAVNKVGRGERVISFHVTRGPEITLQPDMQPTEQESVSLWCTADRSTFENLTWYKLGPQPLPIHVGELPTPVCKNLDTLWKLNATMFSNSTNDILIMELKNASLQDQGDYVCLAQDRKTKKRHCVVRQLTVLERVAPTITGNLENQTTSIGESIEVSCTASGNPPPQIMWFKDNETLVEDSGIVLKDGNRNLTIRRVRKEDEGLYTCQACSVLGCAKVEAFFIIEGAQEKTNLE

As for “Galectin-1 (human recombinant Gal1) (from UniProt P09382 2-135) (ligand)”, the EC50 (read off the curve) was 7 µM.
